Literature values as cited in article PMC9736027.

Target: Nrf2 (Homo sapiens) (UniProt Q16236)
Chain of UniProt Q16236 (Q16236 whole entry): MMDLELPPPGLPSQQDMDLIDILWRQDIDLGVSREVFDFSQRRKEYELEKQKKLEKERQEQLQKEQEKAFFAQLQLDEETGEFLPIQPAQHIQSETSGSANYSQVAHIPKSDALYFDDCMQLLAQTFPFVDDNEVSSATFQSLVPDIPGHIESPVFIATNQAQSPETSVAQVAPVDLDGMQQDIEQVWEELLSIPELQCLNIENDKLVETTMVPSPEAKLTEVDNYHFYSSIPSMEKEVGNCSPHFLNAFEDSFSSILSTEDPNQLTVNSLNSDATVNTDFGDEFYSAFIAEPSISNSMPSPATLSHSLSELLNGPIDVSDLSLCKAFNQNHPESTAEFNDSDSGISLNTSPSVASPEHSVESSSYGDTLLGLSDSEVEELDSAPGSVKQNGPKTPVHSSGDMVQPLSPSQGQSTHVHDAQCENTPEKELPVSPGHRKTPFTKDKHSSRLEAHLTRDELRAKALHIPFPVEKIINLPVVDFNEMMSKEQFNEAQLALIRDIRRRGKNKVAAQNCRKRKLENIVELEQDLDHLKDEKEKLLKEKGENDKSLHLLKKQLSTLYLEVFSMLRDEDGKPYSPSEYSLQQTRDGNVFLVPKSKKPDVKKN

Substance: Keap1 (from UniProt Q14145)
- Kd: 20 nM
